# Assay results from patent US20230295313A1.
# Residue numbers refer to the chain shown, from its start.
# B1: murine mAb048 (antibody, V domains shown)
# VH: QVQLQQPGADLVKPGASVKLSCKAYGYTFFSYWMHWVRQRPGQGLEWIGMIHPNSGTTNNNEKFKSKATLTVDKSFSTAYMQLSSLTSEDSAVYYCARGYSNYDFDYWGQGTILTVSS
# VL: DIKMTQFPSSMYASLGERVTITCKASQDINTYLIWIQQKPGKSPKTLIYRANRLADGVPSRFSGSGSGQDSSLTISSLEHEDMGIYYCLQYDEFPYTFGGGTKLEIK
# B2: murine mAb067 (antibody, V domains shown)
# VH: QVKLHQSGAELAKPGASVKMSCKASGYTFNSYWIHWVKQRPGQGLEWIGYNNPTSGYSEYNQKFTDKATLSADKSSSTAYMQLSSLTSEDSAVYYCVREYGDLFAYWGQGTLVTVSA
# VL: NIVMTQSPKSMSMSVGERVTLSCKASENVGYSVSWFQQKPDQSPKLLIYGASNRYTGVPDRFTGSGSATDFTLTISTVQAEDLADYHCGQIYIYPYTFGGGTKLEIK
# B3: murine mAb117 (antibody, V domains shown)
# VH: QAYLQQSGAELVRPGASVKMSCKASGYTFTSYNMHWVKQSPRQGLEWVGVFYLGNGDTSYNEKFKGKATLTVDKSSSTAYMQLSSLTSEDSAVYFCARPGGYANWYFDVWGTGTTVTVSS
# VL: DIVMTQSQKFMSTSVGDWVSVTCKASQNVGTEVSWYQQKPGQSPNTLIYSASYRHSGVPDRFTGSGSGTEFTLTITNVQSEDLADYFCQQYNSFPLTFGAGTKLDLK
# B4: mAb063 (antibody, V domains shown)
# VH: EVQLQQSGPELVKPGASVKISCKASGYTFTDYYMNWVKQSHGKSLEWIGHINPNSGSTTYTEKFKDKATLTVDKSSSTAYMELRSLTSDDSAVYYCVRRIGKNWHCDVWGTGTTVTVSS
# VL: DIVLTQSPASLAVSLGQRATISCRASESVNFHGTHLMHWYQQKPGQAPKLLIYAASNLDSGVPARFSGSGSETDFTLNIHPVEEEDAATYFCQQSIEDPFTFGSGTYLEIK
# B5: murine mAb001 (antibody, V domains shown)
# VH: QVQLQQPGAELVRPGSSVKLSCKASGYTFTSYWMDWVKQRPGQGLEWIGNIYPSDSKTHYNQKFKDKATLTVDKSSSTAYMQLSSLTSEDSAVYYCARDYYGSIGMDYWGQGTSVTVSS
# VL: DIQMTQSPSSLSASLGERVSLTCRASQEISGYLSWLQQKPDGTIKRLIYAASTLDSGVPKRFSGSRSGSDYSLTISSLESEDFADYYCLQYASYPWTFGGGTKLEIK
# B6: murine mAb016 (antibody, V domains shown)
# VH: B5 VH with K57A, V72I, Y108S
# VL: B5 VL with G31D, Y94F
# Biological target: biotin-labeled human IL1RAP (human) (UniProt Q9NPH3)
# Assay: competition ELISA; competitor: capture mAb048 coated; biotin-hIL1RAP
# Sequence of biotin-labeled human IL1RAP (human) (Q9NPH3 21-367 limits assumed): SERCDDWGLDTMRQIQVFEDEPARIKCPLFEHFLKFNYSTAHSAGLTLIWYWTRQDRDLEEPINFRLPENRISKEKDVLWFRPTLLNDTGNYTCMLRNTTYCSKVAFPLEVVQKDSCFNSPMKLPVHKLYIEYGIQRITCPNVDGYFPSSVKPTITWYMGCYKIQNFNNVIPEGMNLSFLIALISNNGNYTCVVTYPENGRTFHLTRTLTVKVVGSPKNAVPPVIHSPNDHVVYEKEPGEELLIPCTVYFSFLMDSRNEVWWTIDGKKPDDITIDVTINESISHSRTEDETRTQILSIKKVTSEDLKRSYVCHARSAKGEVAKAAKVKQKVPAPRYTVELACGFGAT
row,% inhibition [%],Binder
1,84,B1
2,83,B2
3,83,B3
4,82,B4
5,68,B5
6,78,B6

# Biological target: biotin-labeled human IL1RAP (human) (UniProt Q9NPH3)
# Assay: competition ELISA; competitor: capture mAb067 coated; biotin-hIL1RAP
row,% inhibition [%],Binder
1,90,B1
2,87,B2
3,86,B3
4,87,B4
5,76,B5
6,76,B6

# Biological target: biotin-labeled human IL1RAP (human) (UniProt Q9NPH3)
# Assay: competition ELISA; competitor: capture mAb063 coated; biotin-hIL1RAP
row,% inhibition [%],Binder
1,86,B1
2,72,B2
3,87,B3
4,96,B4
5,75,B5
6,80,B6

# Biological target: biotin-labeled human IL1RAP (human) (UniProt Q9NPH3)
# Assay: competition ELISA; competitor: capture mAb016 coated; biotin-hIL1RAP
row,% inhibition [%],Binder
1,98,B1
2,97,B2
3,98,B3
4,97,B4
5,90,B5
6,94,B6

# Biological target: biotin-labeled human IL1RAP (human) (UniProt Q9NPH3)
# Assay: competition ELISA; competitor: capture mAb001 coated; biotin-hIL1RAP
row,% inhibition [%],Binder
1,95,B1
2,94,B2
3,93,B3
4,94,B4
5,93,B5
6,95,B6

# Biological target: biotin-labeled human IL1RAP (human) (UniProt Q9NPH3)
# Assay: competition ELISA; competitor: capture mAb117 coated; biotin-hIL1RAP
row,% inhibition [%],Binder
1,94,B1
2,91,B2
3,95,B3
4,92,B4
5,82,B5
6,89,B6
